The text below walks through data of patent US20240417469A1 (CONCEPT TO MEDICINE BIOTECH, published 2024).

Assay [1] addresses T1, human CD3 on cells (human PBMC; Jurkat TCR/CD3 NFAT reporter cells) (human, UniProt P07766 23-207; P04234 22-171; P09693 23-182). The experiment in a line: cell-based or functional assay.
Assay [2] concerns the target T1, human CD3 on cells (human PBMC; Jurkat …). Nature of the assay: cell-based or functional assay. This is another data set of the same source.
In assay [3] the target is T2, human CD3 protein (human, UniProt P07766 23-126; P04234 22-105).
T2 construct: ELISA coating protein; also called Human CD3D & CD3E Heterodimer Protein
T2 sequence (P07766 23-126 limits assumed, chain 1 of 2): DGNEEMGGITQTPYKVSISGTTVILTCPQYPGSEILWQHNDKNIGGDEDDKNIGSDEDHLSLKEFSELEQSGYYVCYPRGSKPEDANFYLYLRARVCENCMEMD
T2 sequence (P04234 22-105 limits assumed, chain 2 of 2): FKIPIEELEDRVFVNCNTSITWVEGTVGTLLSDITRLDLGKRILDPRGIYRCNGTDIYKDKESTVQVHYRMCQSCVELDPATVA
The experiment in a line: ELISA, plate-coated CD3.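 Further: binding to plate-immobilized human CD3 protein, bound antibody detected with peroxidase-labelled anti-human IgG and TMB, read as absorbance at 450 nm.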

Assay [4] addresses T3, recombinant CD3D&E protein (human CD3-his tag) (human, UniProt P04234 22-105; P07766 23-126, limits assumed).
T3 construct: Analyte in Biacore; also called CD3D&E-His; CD3d&ε-His
The experiment in a line: SPR Biacore, Ab captured on Protein A.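 Further: humanized antibodies on a Protein A chip, human CD3-his analyte flowed over in serial dilutions for 3 min, dissociation tracked 120–360 s on a Biacore T200.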

Some results are limits rather than exact numbers.
Wherever Emax is given: unit not given here.

T3 sequence (P04234 22-105 limits assumed, chain 1 of 2): as the sequence (P04234 22-105 limits assumed, chain 2 of 2) above
T3 sequence (P07766 23-126 limits assumed, chain 2 of 2): as the sequence (P07766 23-126 limits assumed, chain 1 of 2) above
T1 sequence (P07766 23-207, chain 1 of 3): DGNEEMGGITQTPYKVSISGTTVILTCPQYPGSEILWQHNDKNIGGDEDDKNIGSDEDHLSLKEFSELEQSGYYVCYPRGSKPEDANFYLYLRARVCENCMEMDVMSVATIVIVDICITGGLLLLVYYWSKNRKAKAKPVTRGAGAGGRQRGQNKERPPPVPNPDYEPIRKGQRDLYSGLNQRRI
T1 sequence (P04234 22-171, chain 2 of 3): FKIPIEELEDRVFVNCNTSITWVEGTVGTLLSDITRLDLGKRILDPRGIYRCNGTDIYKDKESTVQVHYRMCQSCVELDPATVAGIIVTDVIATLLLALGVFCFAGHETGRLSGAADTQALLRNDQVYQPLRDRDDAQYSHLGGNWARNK
T1 sequence (P09693 23-182, chain 3 of 3): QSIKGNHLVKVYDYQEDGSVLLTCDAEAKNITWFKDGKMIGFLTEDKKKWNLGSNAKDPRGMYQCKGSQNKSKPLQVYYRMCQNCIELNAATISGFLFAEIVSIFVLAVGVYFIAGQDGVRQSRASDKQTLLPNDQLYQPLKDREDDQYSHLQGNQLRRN

B1: Hu153A6B1-2 (antibody, V domains shown)
VH: EVQLQESGPGLVKPSETLSLTCTVSGGSISSYNIHWVRQPPGKGLEWIGRIRYNGDTSYNSALKSRVTISRDTSKNQFSLKLSSVTAADTAVYYCARGPYGGSREPLFDYWGQGTMVTVSS
VL: DIQMTQSPSSLSASVGDRVTITCKTSQNINKYLNWYQQKPGKAPKLLIYTTNNLQTGVPSRFSGSGSGTDFTLTISSLQPEDFATYYCLQHGSGYTFGQGTKLEIK
notes: humanized mAb
As to B1, in assay [1], the “% of SP34” value worked out at 42.6% and the Emax is 2500. The “CD3-NFAT Activity by CD3 mAb” value in assay [2] is ≤ 50 % SP34. Moreover, the EC50 in assay [3] is 3.39 ng/mL. For the same molecule, in assay [4], the Kd is 50 nM, the koff was 0.0201 s⁻¹ and the kon was found to be 402000 M⁻¹ s⁻¹.

B2: Hu153A6B1-8 (antibody, V domains shown)
VH: EVQLQESGPGLVKPSETLSLTCTVSGGSISSYNIHWVRQPPGKGLEWIGRIRYNGDTSYNSALKSRVTISRDTSKNQFSLKLSSVTAADTAVYYCARGPYGGSREPLFDYWGQGTMVTVSS
VL: DIQMTQSPSSLSASVGDRVTITCKTSQNINKYLNWFQQKPGKAPKLLIYTTNNLQTGIPSRFSGSGSGTDFTLTISSLQPEDFATYYCLQHGSGYTFGQGTKLEIK
notes: humanized mAb
Take B2: in assay [1], the “% of SP34” value turned out to be 70.5% and the Emax was determined as 4130. In addition, the “CD3-NFAT Activity by CD3 mAb” value in assay [2] is > 50 % SP34. Moreover, in assay [3], the EC50 came out at 2.95 ng/mL. In assay [4], the Kd was found to be 49 nM, the koff turned out to be 0.0396 s⁻¹ and the kon came to 808000 M⁻¹ s⁻¹.

B3: Hu153A6B1-6 (antibody, V domains shown)
VH: EVQLQESGPGLVKPSETLSLTCTVSGFSLTSYNIHWVRQPPGKGLEWMGRIRYNGDTSYNSALKSRLTISRDTSKNQVSLKLSSVTAADTAVYYCTRGPYGGSREPLFDYWGQGTMVTVSS
VL: DIQMTQSPSSLSASVGDRVTITCKTSQNINKYLNWYQQKPGKAPKLLIYTTNNLQTGVPSRFSGSGSGTDFTLTISSLQPEDFATYYCLQHGSGYTFGQGTKLEIK
notes: humanized mAb
Turning to B3, in assay [1], the “% of SP34” value amounted to 71.9% and the Emax came to 4210. Further, the “CD3-NFAT Activity by CD3 mAb” value in assay [2] was > 50 % SP34. The same molecule came in with an EC50 in assay [3] of 2.99 ng/mL. Also, in assay [4], the equilibrium dissociation constant (Kd) is 21.1 nM, the koff is 0.00181 s⁻¹ and the kon was 85800 M⁻¹ s⁻¹.

B4: Hu153A6B1-3 (antibody, V domains shown)
VH: EVQLQESGPGLVKPSETLSLTCTVSGGSISSYNIHWVRQPPGKGLEWMGRIRYNGDTSYNSALKSRLTISRDTSKNQFSLKLSSVTAADTAVYYCARGPYGGSREPLFDYWGQGTMVTVSS
VL: DIQMTQSPSSLSASVGDRVTITCKTSQNINKYLNWYQQKPGKAPKLLIYTTNNLQTGVPSRFSGSGSGTDFTLTISSLQPEDFATYYCLQHGSGYTFGQGTKLEIK
notes: humanized mAb
For the molecule B4, in assay [1], the “% of SP34” value amounted to 45.5% and the Emax stood at 2660. Besides, in assay [2], the “CD3-NFAT Activity by CD3 mAb” value is ≤ 50 % SP34. Also, in assay [3], the EC50 worked out at 3.87 ng/mL. For the same molecule, in assay [4], the Kd was determined as 59.5 nM, the koff worked out at 0.0241 s⁻¹ and the kon amounted to 406000 M⁻¹ s⁻¹.

B5: Hu153A6B1-7 (antibody, V domains shown)
VH: EVQLQESGPGLVKPSETLSLTCTVSGGSISSYNIHWIRQPPGKGLEWIGRIRYNGDTSYNSALKSRVTISVDTSKNQFSLKLSSVTAADTAVYYCARGPYGGSREPLFDYWGQGTMVTVSS
VL: DIQMTQSPSSLSASVGDRVTITCKTSQNINKYLNWFQQKPGKAPKLLIYTTNNLQTGIPSRFSGSGSGTDFTLTISSLQPEDFATYYCLQHGSGYTFGQGTKLEIK
notes: humanized mAb
For B5, in assay [1], the “% of SP34” value was 26.9% and the Emax was 1580. For the same molecule, in assay [2], the “CD3-NFAT Activity by CD3 mAb” value was ≤ 50 % SP34. Also, the EC50 in assay [3] stood at 6.78 ng/mL. For the same molecule, in assay [4], the equilibrium dissociation constant (Kd) was determined as 45.2 nM, the koff is 0.0142 s⁻¹ and the kon turned out to be 314000 M⁻¹ s⁻¹.

B6: Hu153A6B1-4 (antibody, V domains shown)
VH: EVQLQESGPGLVKPSETLSLTCTVSGGSISSYNIHWVRQPPGKGLEWMGRIRYNGDTSYNSALKSRLTISRDTSKNQFSLKLSSVTAADTAVYYCTRGPYGGSREPLFDYWGQGTMVTVSS
VL: DIQMTQSPSSLSASVGDRVTITCKTSQNINKYLNWYQQKPGKAPKLLIYTTNNLQTGVPSRFSGSGSGTDFTLTISSLQPEDFATYYCLQHGSGYTFGQGTKLEIK
notes: humanized mAb
For B6, in assay [1], the “% of SP34” value came to 44.1% and the Emax turned out to be 2580. Besides, the “CD3-NFAT Activity by CD3 mAb” value in assay [2] is ≤ 50 % SP34. Also, in assay [3], the EC50 was determined as 3.72 ng/mL. In addition, in assay [4], the Kd was 58.5 nM, the koff is 0.0195 s⁻¹ and the kon came to 334000 M⁻¹ s⁻¹.

B7: Hu153A6B1-15 (antibody, V domains shown)
VH: EVQLQESGPGLVKPSETLSLTCTVSGGSISSYNIHWVRQPPGKGLEWMGRIRYNGDTSYNSALKSRLTISRDTSKNQFSLKLSSVTAADTAVYYCARGPYGGSREPLFDYWGQGTMVTVSS
VL: DIQMTQSPSSLSASVGDRVTITCKTSQNINKYLNWFQQKPGKAPKLLIYTTNNLQTGIPSRFSGSGSGTDFTLTISSLQPEDFATYFCLQHGSGYTFGQGTKLEIK
notes: humanized mAb
For the molecule B7, in assay [1], the “% of SP34” value worked out at 75.2% and the Emax came out at 4150. Also, in assay [2], the “CD3-NFAT Activity by CD3 mAb” value is > 50 % SP34. Also, in assay [3], the EC50 was 3.03 ng/mL. In assay [4], the Kd was determined as 76.2 nM, the koff was 0.0151 s⁻¹ and the kon worked out at 198000 M⁻¹ s⁻¹.

B8: Hu153A6B1-14 (antibody, V domains shown)
VH: EVQLQESGPGLVKPSETLSLTCTVSGGSISSYNIHWVRQPPGKGLEWIGRIRYNGDTSYNSALKSRVTISRDTSKNQFSLKLSSVTAADTAVYYCARGPYGGSREPLFDYWGQGTMVTVSS
VL: DIQMTQSPSSLSASVGDRVTITCKTSQNINKYLNWFQQKPGKAPKLLIYTTNNLQTGIPSRFSGSGSGTDFTLTISSLQPEDFATYFCLQHGSGYTFGQGTKLEIK
notes: humanized mAb
As to B8, in assay [1], the “% of SP34” value was 74.9% and the Emax came out at 4140. Also, the “CD3-NFAT Activity by CD3 mAb” value in assay [2] was > 50 % SP34. In addition, the EC50 in assay [3] is 3.06 ng/mL. Moreover, in assay [4], the dissociation constant Kd came to 51.7 nM, the koff is 0.053 s⁻¹ and the kon was 1.02e+06 M⁻¹ s⁻¹.

B9: Hu153A6B1-5 (antibody, V domains shown)
VH: EVQLQESGPGLVKPSETLSLTCTVSGFSISSYNIHWVRQPPGKGLEWMGRIRYNGDTSYNSALKSRLTISRDTSKNQVSLKLSSVTAADTAVYYCTRGPYGGSREPLFDYWGQGTMVTVSS
VL: DIQMTQSPSSLSASVGDRVTITCKTSQNINKYLNWYQQKPGKAPKLLIYTTNNLQTGVPSRFSGSGSGTDFTLTISSLQPEDFATYYCLQHGSGYTFGQGTKLEIK
notes: humanized mAb
Take B9: in assay [1], the “% of SP34” value came to 78.5% and the Emax was found to be 4600. The “CD3-NFAT Activity by CD3 mAb” value in assay [2] is > 50 % SP34. Moreover, in assay [3], the EC50 was found to be 3.23 ng/mL. Also, in assay [4], the Kd worked out at 19.4 nM, the koff was found to be 0.00177 s⁻¹ and the kon worked out at 91300 M⁻¹ s⁻¹.

B10: Hu153A6B1-10 (antibody, V domains shown)
VH: EVQLQESGPGLVKPSETLSLTCTVSGGSISSYNIHWVRQPPGKGLEWMGRIRYNGDTSYNSALKSRLTISRDTSKNQFSLKLSSVTAADTAVYYCTRGPYGGSREPLFDYWGQGTMVTVSS
VL: DIQMTQSPSSLSASVGDRVTITCKTSQNINKYLNWFQQKPGKAPKLLIYTTNNLQTGIPSRFSGSGSGTDFTLTISSLQPEDFATYYCLQHGSGYTFGQGTKLEIK
notes: humanized mAb
Regarding B10, in assay [1], the “% of SP34” value is 73.9% and the Emax worked out at 4080. Moreover, the “CD3-NFAT Activity by CD3 mAb” value in assay [2] is > 50 % SP34. The molecule also displayed an EC50 in assay [3] of 3.44 ng/mL. Moreover, in assay [4], the dissociation constant Kd is 70.5 nM, the koff was 0.0568 s⁻¹ and the kon is 806000 M⁻¹ s⁻¹.

B11: Hu153A6B1-11 (antibody, V domains shown)
VH: EVQLQESGPGLVKPSETLSLTCTVSGFSISSYNIHWVRQPPGKGLEWMGRIRYNGDTSYNSALKSRLTISRDTSKNQVSLKLSSVTAADTAVYYCTRGPYGGSREPLFDYWGQGTMVTVSS
VL: DIQMTQSPSSLSASVGDRVTITCKTSQNINKYLNWFQQKPGKAPKLLIYTTNNLQTGIPSRFSGSGSGTDFTLTISSLQPEDFATYYCLQHGSGYTFGQGTKLEIK
notes: humanized mAb
As to B11, in assay [1], the “% of SP34” value was 81% and the Emax was 4470. For the same molecule, in assay [2], the “CD3-NFAT Activity by CD3 mAb” value is > 50 % SP34. In assay [3], this molecule registered an EC50 of 3.05 ng/mL. Besides, in assay [4], the Kd is 11.4 nM, the koff turned out to be 0.00106 s⁻¹ and the kon worked out at 93000 M⁻¹ s⁻¹.

B12: Hu153A6B1-12 (antibody, V domains shown)
VH: EVQLQESGPGLVKPSETLSLTCTVSGFSLTSYNIHWVRQPPGKGLEWMGRIRYNGDTSYNSALKSRLTISRDTSKNQVSLKLSSVTAADTAVYYCTRGPYGGSREPLFDYWGQGTMVTVSS
VL: DIQMTQSPSSLSASVGDRVTITCKTSQNINKYLNWFQQKPGKAPKLLIYTTNNLQTGIPSRFSGSGSGTDFTLTISSLQPEDFATYYCLQHGSGYTFGQGTKLEIK
notes: humanized mAb
On to B12, for which, in assay [1], the “% of SP34” value is 87.5% and the Emax turned out to be 4830. Moreover, the “CD3-NFAT Activity by CD3 mAb” value in assay [2] is > 50 % SP34. This molecule also gave an EC50 in assay [3] of 2.69 ng/mL. Also, in assay [4], the equilibrium dissociation constant (Kd) turned out to be 13.5 nM, the koff came out at 0.00107 s⁻¹ and the kon was determined as 79400 M⁻¹ s⁻¹.

B13: Hu153A6B1-13 (antibody, V domains shown)
VH: EVQLQESGPGLVKPSETLSLTCTVSGGSISSYNIHWIRQPPGKGLEWIGRIRYNGDTSYNSALKSRVTISVDTSKNQFSLKLSSVTAADTAVYYCARGPYGGSREPLFDYWGQGTMVTVSS
VL: DIQMTQSPSSLSASVGDRVTITCKTSQNINKYLNWFQQKPGKAPKLLIYTTNNLQTGIPSRFSGSGSGTDFTLTISSLQPEDFATYFCLQHGSGYTFGQGTKLEIK
notes: humanized mAb
For B13, in assay [1], the “% of SP34” value turned out to be 23.2% and the Emax was 1280. Moreover, the “CD3-NFAT Activity by CD3 mAb” value in assay [2] was ≤ 50 % SP34. Further, the EC50 in assay [3] turned out to be 6.38 ng/mL. Moreover, in assay [4], the Kd was found to be 29.6 nM, the koff stood at 0.0103 s⁻¹ and the kon turned out to be 349000 M⁻¹ s⁻¹.
